Experimental data: the nanobody polyreactivity screen of Harvey et al. (2022)

Experiment: yeast display, Sf9 membrane polyspecificity reagent, FACS + sequencing; frameworks hold sequencing errors
Method in brief: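 Nanobodies from a synthetic yeast display library (Saccharomyces cerevisiae BJ5465), induced 36–48 hours with galactose, were stained 1 hour at 4 °C with 10% biotinylated, detergent-solubilized Sf9 membrane reagent, enriched on streptavidin microbeads, then FACS-sorted. Anti-HA (expression) and streptavidin (reagent binding) fluorescence set low and high (top ~1%) gates. Polyreactivity labels come from the gate of origin. Genes were colony-PCR amplified, MiSeq 2 × 250 sequenced and filtered by CDR length.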

Row | Sequence | polyreactivity (PSR sort gate)
1 | QVQLVESGGGLVQAGGSLRLSCAASGYTLQTYAMGWYRQAPGKERELVAAISYRGGRTYYADSVKGRFTISRDNAKNTVYLQMNSLKPEDTAVYYCATRVRYKDYPYSIRYYWGQGTQVTVSS | high polyreactivity
2 | QVQLVESGGGLVQAGGSLRLSCAASGFISVRNAMGWYRQAPGKERELVAAISSGDTTDYADSVKGRFTISRDNAKNTVSLQMNSLKAEDTAVYYCAAVYYGRYYYWGQGTQVTVSS | low polyreactivity
3 | QVQLVESGGGLVQAGGSLRLSCAASGFTFWYNAMGWYRQAPGKERELVAAISKSGGSTYYADSVKGRFTISRDNAKNTVYLQMNILKPEDTAVYYCAARLPYNRYNYWGQGTQVTVSS | high polyreactivity
4 | QVQLVESGGGLVQAGGSLRLSCAASGSIFVNNAMGWYRQAPGKERELVAAISSRGGSTYYADSVKGRFTISRDNAKNTVYLQMNSLKPEDTAVYYCAAEYDGPYYSFYPEQRYYWGLGTQVTVSS | low polyreactivity
5 | QVQLVESGGGLVQAGGSLRLSCAASGLTLPYNAMGSYRQAPGKERELVAAITCIGGSTYYADSVKGRFTISRDNAKNTVYLEMNSLKPEDSAVYYCAKEVRGPIIYLEGYWGQGTQVTVSS | low polyreactivity
6 | QVQLVESGGGLVQAGGSLRLSCAASGFIFYRNAMGWYRQAPGKERELVAGISRSGTRTYYADSVKGRFTISRDYSKNTVYLQMNSLKPEDTAVYYCAADRSLGYDYWGQGTQVTVSS | high polyreactivity
7 | QVQLVESGGGLVQAGGSLRLSCAASGNIFNLYAMGWYRQAPGKERELVAAIRGSGSTYYADSVKGRFTISRDNAKNTVYLQMNSLKPEDTAVYYCAAGISGHYYWGQGTQVTVSS | high polyreactivity
8 | QVQLVESGGGVVQAGGSLRLSCAASGRIFHRYTMGWYRQARGKERELVAVISGLGGSTYYADSVKGRFTISRDNAKNTVYLQMNSLKPEDTAVYYCNRVGKYWSSDDSWGQGTQVTVSS | high polyreactivity
9 | QVQLVESGGGLVQAGVSLRLSCAASGSTFYDIAMGWYRQATGKDRELVAAISYSGASTYYADSVKGRFTISRDNAKNTVYLHINSLKPEDTAVYYCAKTFYTLYWGQGTKVTVSS | low polyreactivity
10 | QVQLVESGGGLVQAGGSLRLSCAASGITFIYYAMGSYRQAPGKERELVAAISKSGGRTYYADSVKGRFTISRDNAKNTVYLQMNSLKPEDSAVYYCNKLVGDDTSLYDYWGQGTQVTVSS | high polyreactivity
11 | QDKLVESGGGLVQAGGSLRLSCAPSGSIFYGYAMGWYRQAPGKESELVAAMSSTGGTTYYADSVKGRFTISRDNAKNTVYLQMNSQKPEDTAVYYCAKRGRTWRYPFDYWGQGTQVTVSS | high polyreactivity
12 | QVQLVESGGGLVQAGGSLRLSCAASGSTFVYYTMGWYRPAPGKERELVAAITSGTSTNYADSVKGRFTISRDNAKNTVYLQMNSLKPEDTAVYDCNAQRRGTYYWGQGTQVTVSS | high polyreactivity
13 | QVQLVESGGGLVQAGGSLRLSCAASGRTFYVNALGWYRQAPGKERELVAGISFSDGSTYYADSVKGRFTISRDNAKNTVYLQMNSLKPEDTAVYYCATVGAFDIYYGYGYWGQGTQVTVSS | low polyreactivity
14 | QVQLVESGGGLVQAGGSLRLSCAASGSIFRGYAMGWYRQAPGKERDLVAAITSGGSTNYADSVKGRFTISRDNAKNSVYLQMNSLKPEDTAVYYCAKDLALVAPLSDYWGQGTQVTVSS | low polyreactivity
15 | QVQLVESGGGLVQAGGSLRLSCAASGLTFRRYAMGWYRQAPGKERELVAGISRGGSTYYADSVKGRFTISRDNAKNTVYLQMNRLKPEDTAVYYCAAYNSGTYPVQPVPYDMDYWGQGTQVTVSS | low polyreactivity
16 | QVQLVESGGGLVQAGGSLRLSCAASGLILDGNAMGWYRTAPGKERELVAAITRSGGRTYYADSVKGRFTISRDNAKNTVYFQMNSLKPEDTAVYYCAALGWSGRYRYDYWGQGTQVTVSS | high polyreactivity
17 | QVQLVESGGGLVQAGGSIRLTSAASGRTFVTHPMGWYRQAPGKDRELVAAISRSGSSTYYADSVKGRFTISRDNAKNSVYLQMNSLKAADTAVYYFARVRSRATEVVEYDYWGQGTQVTVSS | high polyreactivity
18 | QVQLVESGGGLVQAGGSLRLSCAASGITSPAYAMGWYRQAPGKEREFVAAISSSGVSTYYADSVKGRFTISRDNAKNTVYLQMNRLKPEDTAVYYCNTVSWPLSSKYYYWGQGTQVTVSS | high polyreactivity
19 | QVQLVESGVGLVQAGGRLRLSCAASGRIIYIYAMGWYRQAPGKERELVAAITASSGSTNYADSVKGRFTISRDNAKNTVYLQMNSLKPEDTAVYYCSAAPSRTLLRQTKYYYWGQGTQVTVSS | low polyreactivity
20 | QVQLVDSGGGLVQAGGSLRLSCAASGLTILPNAMGWSRQAPGNDRELVAAISWGDGNTYYADSVKGRFTISRDNAKNTVYLQMNSLKPEDTAVYYCAADVIKSRTYDYWGQGTQVTVSS | low polyreactivity
21 | QVQLVESGGGLVQAGGSLRLSCAASGRTFNLYAMGWSRQAPGKERELVARITSGGSTNYADSEKGRFTISRDNAKNTVYLQMNSLKPEDTAVYYCAASSYNRGDYWGQGTQVTVSS | high polyreactivity
22 | QVQLVESGGGLVQARGSLRLSCAASGSIFRKYAMGWYRQAPGKERELVAVITTDGSTNYADSVKGRFTISRDNAKNTVYLQMNSLKPEDTAVYYCNAVRSSIGTDNVYWGLGTQVTVSS | low polyreactivity

Row | Sequence | polyreactivity (PSR sort gate)
23 | QVQLVESGGGLVQAGGSLRLSCAASGLYAMGWYRPAPGKERELVADINSSGGSITNYADSVKGRFTISRDNAKNTVYLQMISLKPEDTAVYYCAKRGPYFAYDYWGQGTQVTVSS | low polyreactivity
24 | QVQLVESGGGLVQAGGSLRLSCAASGSISADYVMGWYRQAPGKDRELVAAISVSAGTTYYADSVKGRFTISRDNAKNTVYLQMNSLKPEDTAVYYCAATDSYYWLYYYGYSPGNDYWGQGTQVTVSS | low polyreactivity
25 | QVQLVESGGGLVQAGGSLRLSCAGSGRTFSTYAMGSDRQAPGKERELVAAITRRGGSTYYADSVKGRFTISRDNAKNTVYLQMNSLKPEDTAVYYCARENPGDSYYDYWGQGTQVTVSS | low polyreactivity
26 | QVQLVVSGGGLVQAGGSLRLSCAASGSIFPYYTMGWYRQAPGKEWELVAAISGSGTSTYYADSVKGRFTISRDNAKNTVYLQMNSLKPEDTAVYYCAKRFRYGYVNYYYWGQGTQVTVSS | low polyreactivity
27 | QVQLVESGGGLVQAGGSLRLSCAASGRIFHRNAMGWYRQAPGKERELVATIRGNGGSTYYADSVKGRFTISRDNAKNTVYLQMNSLKPEDTAVYYCALDAQGYGGWWTYSRFYSWGQGTQVTVSS | high polyreactivity
28 | QVKLVESGGGLVQAGGSLRLSCAASGSSFTNYAMGWYRQEPRKERELVAAITSVGSTYYADSVKGRFTISRDNAKNTVYLQMNSLKPEDTAVYYCNVVYRDQYNYWGQGTQVTVSS | low polyreactivity
29 | QDQLVESWGGLVQAGGSLRLSCASSGITVYGYTMGWYRQAPGKERELVAGISRGGSTYYADSVKGRFTISRDNAKNTVYLQINSLKPEDTAVYYCAVESFYRHASLYDYWGQGTQVTVSS | high polyreactivity
30 | QDQLVESGGGLVQAGGSLRLSCAASGRTFYDNAMGWYRQAPGKERELVAAITWRGGGTYYADSVKGRFTISRDNAKNTVYLQMNSLKPEDTAVYYCAADSSGTGFYAYTDGEEKYSWGQGTQVTVSS | high polyreactivity
31 | QVQLVESGGGLVHAGGSLRLSCAASGRIFIANTMGWYRQATGKERELVAAITQRGDSTYYADSVKGRCTISRDNAKNTVDLQMNSLKPEDTAVYYCAARYYLSSYVRYNYWGQGTQVTVSS | high polyreactivity
32 | QVQLVESGGGLVQAGGSLRLSCAASGRTFLPNAMGWYRQAPGKDRELVAVITSGGSTNYADSVKGRFTISRDNAKNTVYLQMNSLKPEDTAVYYCAARRWSSSQGHWGKSAGYGYWGQGTQVTVSS | low polyreactivity
33 | QVQLVESGGGLVQAGGSLRLSCAASGSTFRGYTMGWYRQAPGKERELVATISYRSGSTSYADSVKGRFTISRDNAKNTVYLQMNSLKPEDTAVYYCNRVYSKPRYYYWGQGTQVTVSS | high polyreactivity
34 | QVQLVESGGGLVQAGGSLRLSCAASGRIFRYYAMGWYRQAPGKERELVATITSSGGSTFYADSVKGRFTISRDNAKNTVYLQMNSLKPEDTAVYYCAASRASRYFPYDYWGQGTQVTVSS | high polyreactivity
35 | QVQLVESGGGLVQAGGSLRLSCAASGSTFFVNAMGWYRQAPGKERELVAAISYSGGSTYYADSVKGRFTSSRDNAKNTVYLQMNSLKPEDTAVYYCAKDGGPAQDIGMDYCGQGTQVTVSS | low polyreactivity
36 | QVQLVESGGGLVQAGGSLRLSCAASGSILRDYAMGWYRQAPGKERELVAAITTSGAITYYADSVKGRFTISRDNAKNTVYLQMNSLKTEDTAVYYCNAKYVRWYGKYNYWGQGTQVTVSS | high polyreactivity
37 | QVQLVESGGGLVQAAGSLRLSCAASGRTSVRYAMGWNRQAHGKERELVAAISWSGGSTYYADSVKGRFTISRDNAKNTVYLQMNSLKPEDTAVYYCNAQHALGYYYWGQGTQVTVSS | low polyreactivity
38 | QVQLVESGGGLVQAGGSLRLSCAASGSTFNEYVMGWYRQAPGKERELVAAITGGGGRTYYADSVKGRFTISRDNAKITVYLQMNSQKPEDTAFYDCAKRYLYGTYWGFFRYDYWGQGTQVTVSS | low polyreactivity
39 | QVQLVESGGGLVQAGGGLRLSCAASGRTFYIYAMGWYRQAPGKERELVAAISWRGGSTYYADSVKGRFTISRDNAKNTGYLQMNSLKPEDTAVYYCAKVYARTVGWFNYWGQGTQVTVSS | high polyreactivity
40 | QVQLVESGGGLVQAGGSLRLSCAASVSIFQVYAMGWYRQAPGKERELVAAITWSAGSTYADSVKGRFTISRDNAKNTVYLQMNSLKPEDTAVYYSAAYPYVGYVSFSAYDYWGQGTQVTVSS | low polyreactivity
41 | QVQLVESGGGLVQAGGSLRLSCAASGSIFYRYAMGWYRQAPGKERELVATISSGGRTYYADSVKGRFTISRDNAKNTVYLQMNSLKPEVTAVYYCAAKRFSSPYWEYYWGQGTQVTVSS | high polyreactivity
42 | QVQLVESGGGLVQAGGSLRLSCAASGFIVASNAMGGDRQAPGKVRELLAAINSSAGSTYYADSVKGRFTISRDNAKNTVYLQMNSQKPEDTAVYYCNRDDGSVYRRHRRPYYYWGQRTQVTVSS | low polyreactivity
43 | QVQLVESGGGLVQAGGSLRLSCAASGITFGRNTMGWYRQAPGKERELVAAIDSGGNTYAVSVKGRFTISRDNAKNTVYLQMNSLKPEDTAVYYCAVDGGEYSYYGTYDYWGQGTQVTVSS | low polyreactivity
